Source: the DeepSol protein solubility set

Assay: soluble on expression in E. coli; label from the status in PepcDB or PDB records

Sequence | soluble on expression in E. coli
MSLLPGPLLIPSDSSTELTQTVLEGESISCFQVGGEKRLCLPQVLNSVLREFTLQQINTVCDELYIYCSRCTSDQLHILKVLGILPFNAPSCGLITLTDAQRLCNALLRPRTFPQNGSVLPAKSSLAQLKETGSAFEVEHECLGKCQGLFAPQFYVQPDAPCIQCLECCGMFAPQTFVMHSHRSPDKRTCHWGFESAKWHCYLHVNQKYLGTPEEKKLKIILEEMKEKFSMRSGKRNQSKTDAPSGMELQSWYPVIKQEGDHVSQTHSFLHPSYYLYMCDKVVAPNVSLTSAVSQSKELTKTEASKSISRQSEKAHSSGKLQKTVSYPDVSLEEQEKMDLKTSRELCSRLDASISNNSTSKRKSESATCNLVRDINKVGIGLVAAASSPLLVKDVICEDDKGKIMEEVMRTYLKQQEKLNLILQKKQQLQMEVKMLSSSKSMKELTEEQQNLQKELESLQNEHAQRMEEFYVEQKDLEKKLEQIMKQKCTCDSNLEKDKEAEYAGQLAELRQRLDHAEADRQELQDELRQEREARQKLEMMIKELKLQILKSSKTAKEEGHHHHHH | not soluble
MSLLRSLRVFLVARTGSYPAGSLLRQSPQPRHTFYAGPRLSASASSKELLMKLRRKTGYSFVNCKKALETCGGDLKQAEIWLHKEAQKEGWSKAAKLQGRKTKEGLIGLLQEGNTTVLVEVNCETDFVSRNLKFQLLVQQVALGTMMHCQTLKDQPSAYSKGFLNSSELSGLPAGPDREGSLKDQLALAIGKLGENMILKRAAWVKVPSGFYVGSYVHGAMQSPSLHKLVLGKYGALVICETSEQKTNLEDVGRRLGQHVVGMAPLSVGSLDDEPGGEAETKMLSQPYLLDPSITLGQYVQPQGVSVVDFVRFECGEGEEAAETE | soluble
MSLLSYRHAFHAGNHADMLKHFTLFLVLQYFNRKDKPYWYIDTHGGAGVYNLEGSEAQKVGEYRQGIALLRQAQNLPAELSDFAAHIQKILPSPELYCGSPWLAQSLTRVGDKLRLFELHPTDFVHLQNNMGEAGLGKRGQVLREDGYKGLISLLPPPPRRAAVLIDPPYEEKQDYWRVTETLKSALKRFESGCYLIWYPCLSREESRKLPEELKKLVPDNYLHAELHVHAPKADGFGMHGSGMFVINPPYLLAEQLAANLPALTRLLAQDEGARYLLDSKEGHHHHHH | soluble
MSLNGTFEATKSCPAYLSKNRKSNPDNLMVEPNQKYQLKEINKTKPDWLRIQFSDHQPNLRWVSVDCGVIEYTERPKASCDLSPGMADSYVLALSSQPGFCETYGYEIGKPECLKLTKTVYQANHLILHGLWPNQEACGHNYGYCGISPRTNHCDYSPLDLSSDVAQNLKKLMPSYNYGSCLERHEWNKHGSCQDLSTDGYFSLAMRLTTEVNNTEFGQYLTAHRGDTVKLTTLRELIKRSFGENNTGKVTLSCKNGILVDIYVQLPALIPFKESLESLVDKASEGHHHHHH | not soluble
MSLNIAMTGATGYIGKHLSNYLTEKGGHRIIPLGRAMFREGMSGLLVQTLTHCDVIINLAGAPINQRWTPEHKQELFNSRITVTHRIIRALNAVKTKPKLMISASAVGYYPSLVESDEYTQTRGDGFLSDLCYAWEKEAKRCPQPTRLVITRFGVVLSPDGGAMQQMLRPLRATKVAAVIGPGTQPFPWIDIRDLCCAMAFFIENEELRGVFNLVAPQAVSQSTFTRAMGKAYHAWTTLIVPQAVFRLFYGEAASFLTAGQRVRPTRLLEAGFHFSVPTIEKLFEGEGHHHHHH | soluble
MSLNIFDHYRQRYEAAKDEEFTLQEFLTTCRQDRSAYANAAERLLMAIGEPVMVDTAQDPRLSRLFSNRVIARYPAFEEFYGMEDAIEQIVSYLKHAAQGLEEKKQILYLLGPVGGGKSSLAERLKSLMQLVPIYVLSANGERSPVNDHPFCLFNPQEDAQILEKEYGIPRRYLGTIMSPWAAKRLHEFGGDITKFRVVKVWPSILQQIAIAKTEPGDENNQDISALVGKVDIRKLEHYAQNDPDAYGYSGALCRANQGIMEFVEMFKAPIKVLHPLLTATQEGNYNGTEGISALPFNGIILAHSNKSEWVTFRNNKNNEAFLDRVYIVKVPYCLRISEEIKIYEKLLNHSELTHAPCAPGTLETLSRFSILSRLKEPENSSIYSKMRVYDGESLKDTDPKAKSYQEYRDYAGVDEGMNGLSTRFAFKILSRVFNFDHVEVAANPVHLFYVLEQQIEVYWQEGHHHHHH | not soluble
MSLNKKIILLADDDRDDIEMFCEALEMVNENVICECAENGDQAWRMLNDNNEKPQLIFLDINMPIMNGWECLKLIKKDENYQDIPVIMISTSSHKNDMETASKLGALGYFVKPNDFNDLKSMLKIITSNEGTDEGHHHHHH | soluble
MSLNLSRIGLDLAKQVFQVHGVDRHEHVVCRRQLKRAQVRDFFRQLPPCLVAMEACGSAHYWARELRELGHTVRLIAPQFVKPYVKGDKHDAHDAEAICEAASRPSMRYVPVKSAEQQAVQSMHRVRSRLVRARTALCNEVRGLLGEFGLIATRRGRAATMALLETVMATEPAPLPAPMGELLRELKDELQTLEARIARLERQIQAHVRGDARIQRLLAVEGIGPISASAVAASAGDARQFRTGRQFAAWLGLVPRQHSTGGQQRLGNISKRGDTYLRTLLIHGARAVVRCCANKTDARSRWLQGLLQRRPANVVAVALANKNARILWALLSRETCYRPGEGHHHHHH | not soluble
MSLNNQANKLRNLMSQNGTKKSQNTHFIAITSGKGGVGKSTISANLANVLANNGYKVGLFDADIGLANLDVILNVRIQKNLLHVLRGECSLEDILIEVKPNLWLIPGESGDEILKYNDKNIYERFLNQASILDELDFLIIDTGAGIGGNILNFLEMADEVIVVTVPDPAAITDAYATIKTTSKTKENLLMLFNVVKNENEALKVFENIKKVADANIKNPLNLEFLGHLSASKDVSGSIKKRTLFSDENTASSDEIKALASKLLYRLERKVLDNVSNRSFSSFFRKIIEREGHHHHHH | soluble
MSLNPFQKIKSAVNKRQRFFINRTLQRKLTNQGMTVISANCVGAFILHDLHQPFNSPFVNLYLSPQDFLRYLQNIDFYLTQPLTFVQTEKSYPVGKLADLEIHFMHYHSEQEANEKWQLRTSRMKLDNLFIMMTDRDGVTEKDIQLFDQLPFKNKVIFTHKPYPAFKSAYYIKGFEKQNQVGDIFEFSGWNGKKYYDQFDYVKWFNHAEGHHHHHH | soluble
MSLNQNPVEEGQKFPLTIRRMGINGEGIGYFKKAVVFVPGAITGEEVVVEAVKVRDRFTEAKLNKIRKKSPNRVTAPCPVYEACGGCQLQHVAYSAQLELKRDIVIQSIEKHTKIDPTKLKIRPTIGMEDPWRYRNKSQFQTRMVGSGQVETGLFGANSHQLVPIEDCIVQQPVTIKVTNFVRDLLEKYGVPIYDEKAGSGIVRTIVVRTGVKTGETQLVFITNSKKLPKKREMLAEIEAALPEVTSIMQNVNQAKSSLIFGDETFLLAGKESIEEKLMELEFDLSARAFFQLNPFQTERLYQEVEKALVLTGSETLVDAYCGVGTIGQAFAGKVKEVRGMDIIPESIEDAKRNAEKNGIENVYYEVGKAEDVLPKWVKEGFRPDAVIVDPPRSGCDQGLIKSLLDVEAKQLVYVSCNPSTLARDLALLAKKYRIRYMQPVDMFPQTAHVETVVLLQLKDKEGHHHHHH | soluble
MSLNQQYNAFSVLVVDDELGMQAILKKALGKLFSHVDTAGSIEEAEQLRNSRHYDLILLDINLPGRSGIEWEEAFEDDEKRADVIFMTGYADLEIAIRALQLGASDFILKPFNLEQMLKAVSRCMDRRLNERMQYAMKRDYQRHNTSEIIGGSEKTRQLKQLITQFAPSRASVLVEGESGTGKELVARGIHQASGRTGPFVPINCGAIAPELLESELFGHTSGAFTGAKKSREGLFRVANGGTLFLDEIGEMPLSMQASLLRVLEQRTIRPVGSEREISIDVRIVAATNRNLQEEVNQGNFRSDLYYRLNVLKIEVCPLRERKTDLFELVPFFSNMLTRELGMPAPKWAHEDMEAMSEYDWPGNIRELKNLIERCILLGKPPAHYWRELNGGHSLPNVSEGHHHHHH | soluble
MSLNTIDNKEHIIHYEHILKSTHTVNEVNTVSEVDAMKYSLIKLSAMNSYSDCQQAIEDIEADPENYTTETRAAARIGGHCELLKGAKEKIKALEKKADSFIPSDDSEEVNTVSETSQRTYGYGRVSTDEQTTSQQLTAIREAGHKVSDNRFIVDEGVSGGVCAMERPAFRNLVENKLEKGDTLVIAKLDRLGRDNIDVQQVVQMLTDKGIKLFILDLPVADLSSPEGKLMLQMFATFAEFEKNRISERIRDKLKQLKQEGKALGRPTKNVYDDVQELKAQGISQRTIADKLNVSLSTVRRNWVDTKRSLEVVTESGEGHHHHHH | not soluble
